Measurements published in patent US20230235040A1 (ALMIRALL S A, published 2023).
Residue numbers refer to the chain shown, from its start. Names may count otherwise.

How the values were obtained:
[1] = target: T1, hu-IL-36α (human IL-36α, N-terminally truncated active form K6-F158) (human, UniProt Q9UHA7 6-158); assay: cell-based or functional assay
T1 sequence: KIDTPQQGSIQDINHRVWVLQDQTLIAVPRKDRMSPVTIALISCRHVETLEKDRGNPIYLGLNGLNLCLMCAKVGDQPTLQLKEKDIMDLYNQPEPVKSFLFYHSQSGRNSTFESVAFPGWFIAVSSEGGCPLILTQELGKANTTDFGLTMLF

[2] = target: T2, hu-IL-36γ (human IL-36γ, N-terminally truncated active form S18-D169) (human, UniProt Q9NZH8 18-169); assay: cell-based or functional assay
T2 sequence: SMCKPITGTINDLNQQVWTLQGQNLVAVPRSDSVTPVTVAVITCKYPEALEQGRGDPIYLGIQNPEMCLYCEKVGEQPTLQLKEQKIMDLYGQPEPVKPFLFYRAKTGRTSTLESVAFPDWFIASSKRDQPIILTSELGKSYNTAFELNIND

[3] = target: T3, cy-IL-36α-Avi (in-vivo biotinylated) (cynomolgus monkey, limits assumed, site-specifically biotinylated in vivo on the C-terminal AviTag (BirA)); assay: SPR (Biacore 8K), in-vivo biotinylated IL-36-Avi captured on CAP chip, bispecific IgG injected, 37°C
T3 construct: also called biotinylated cyno IL-36α-Avi
T3 chain: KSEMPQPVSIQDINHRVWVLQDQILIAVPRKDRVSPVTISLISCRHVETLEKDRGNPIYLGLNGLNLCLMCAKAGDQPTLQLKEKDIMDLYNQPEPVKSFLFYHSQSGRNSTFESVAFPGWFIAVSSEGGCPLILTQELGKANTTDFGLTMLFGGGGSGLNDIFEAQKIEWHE
Experimental: (§1) Surface plasmon resonance (SPR) analysis was used to determine the binding affinity for human and cynomolgus monkey IL-36 (“hu-IL-36” and “cy-IL-36,” respectively) using a BIACORE™ 8K instrument as described in Example 2. […] Briefly, a 1:4 dilution of Biotin CAPture Reagent (GE Healthcare) into HBS-EP buffer (0.01 M HEPES pH 7.4, 0.15 M NaCl, 3 mM EDTA, 0.005% Surfactant P20) was applied to a CAP sensor chip at 2 μL/min flow rate. For kinetics measurements, 1 nM biotinylated human and cyno IL-36α-Avi, IL-36γ-Avi; 0.8 nM biotinylated human and cyno IL-36β-Avi were captured at 10 μL/min to achieve 15-25 response units in the second flow cell (FC2). FC1 was kept as a reference. […] The sensorgram was recorded and subject to reference and buffer subtraction before data analysis with the BIACORE® 8K Evaluation Software (version 1.1.1.7442). […] Association rates (kₒₙ) and dissociation rates (koff) were calculated using a simple one-to-one Langmuir binding model. The equilibrium dissociation constant (KD) was calculated as the ratio of koff/kₒₙ.

[4] = target: T4, cy-IL-36β-Avi (in-vivo biotinylated) (cynomolgus monkey, site-specifically biotinylated in vivo on the C-terminal AviTag (BirA)); assay: as above
T4 construct: also called cy-IL-36J-Avi [sic]; biotinylated cyno IL-36β-Avi
T4 chain: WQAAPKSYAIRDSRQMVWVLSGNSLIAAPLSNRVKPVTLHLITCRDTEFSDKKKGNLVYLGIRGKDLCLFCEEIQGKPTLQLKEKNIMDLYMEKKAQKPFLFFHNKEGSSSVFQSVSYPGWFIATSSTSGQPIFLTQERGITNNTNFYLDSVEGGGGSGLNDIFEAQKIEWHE
Experimental: as §1

[5] = target: T5, hu-IL-36α-Avi (in-vivo biotinylated) (human, site-specifically biotinylated in vivo on the C-terminal AviTag (BirA)); assay: as above
T5 construct: also called biotinylated human IL-36α-Avi
T5 chain: T3 chain with S2I, E3D, M4T, P7Q, V8G, I24T, V34M, S40A, A74V
Experimental: as §1

[6] = target: T6, hu-IL-36β-Avi (in-vivo biotinylated) (human, site-specifically biotinylated in vivo on the C-terminal AviTag (BirA)); assay: as above
T6 construct: also called biotinylated human IL-36β-Avi
T6 chain: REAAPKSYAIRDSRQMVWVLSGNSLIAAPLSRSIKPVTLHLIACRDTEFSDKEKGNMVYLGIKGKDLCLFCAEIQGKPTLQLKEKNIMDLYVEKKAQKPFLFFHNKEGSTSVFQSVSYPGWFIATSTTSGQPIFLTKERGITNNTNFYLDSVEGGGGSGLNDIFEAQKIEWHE
Experimental: as §1

[7] = target: T7, hu-IL-36γ-Avi (in-vivo biotinylated) (human, site-specifically biotinylated in vivo on the C-terminal AviTag (BirA)); assay: as above
T7 construct: also called biotinylated human IL-36γ-Avi
T7 chain: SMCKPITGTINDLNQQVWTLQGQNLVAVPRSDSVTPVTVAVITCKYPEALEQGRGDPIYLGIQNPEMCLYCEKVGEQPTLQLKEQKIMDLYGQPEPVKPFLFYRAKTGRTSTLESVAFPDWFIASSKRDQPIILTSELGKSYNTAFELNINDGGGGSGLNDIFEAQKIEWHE
Experimental: as §1

B1: mAb2.10/mAb6_2.7 multispecific common light chain antibody (IgG, knobs-into-holes, N297G) (bispecific antibody)
heavy 1: not shown
heavy 2: not shown
light: ESVLTQPPSVSGAPGQRVTISCTGSSSNIGAHYDVHWYQQLPGTAPKLLIYGNDNRPSGVPDRFSGSKSGTSASLAITGLQAEDEADYYCQSYDYSLSGYVFGGGTKLTVLGQPKAAPSVTLFPPSSEELQANKATLVCLISDFYPGAVTVAWKADSSPVKAGVETTTPSKQSNNKYAASSYLSLTPEQWKSHKSYSCQVTHEGSTVEKTVAPTECS
notes: tags removed; also called mAb2.10/mAb6_2.7 IgG; anti-IL-36 multispecific antibody
With B1 the “% inhibition of IL-8 production in HEKa cells at 8 nM antibody” value [1] was 100%, the “% inhibition of IL-8 production in HaCat cells at 8 nM antibody” value [1] was 100% and the “IC50, IL-36-mediated IL-8 production in HaCat cells” value [1] was roughly 0.38 nM. For the same binder, the “IC50, IL-36-mediated IL-8 production in primary human adult keratinocytes (HEKa)” value [1] was roughly 0.56 nM, the “% inhibition of IL-8 production in HEKa cells at 8 nM antibody” value [2] was 100% and the “% inhibition of IL-8 production in HaCat cells at 8 nM antibody” value [2] was 100%. The “IC50, IL-36-mediated IL-8 production in HaCat cells” value [2] was roughly 1.1 nM, the “IC50, IL-36-mediated IL-8 production in primary human adult keratinocytes (HEKa)” value [2] was roughly 2.7 nM and the Kd [3] was 2.57 nM. For the same binder, the koff [3] was 0.000625 s⁻¹, the kon [3] was 243000 M⁻¹ s⁻¹ and the Kd [4] was 2.51 nM. The koff [4] was 0.000218 s⁻¹, the kon [4] was 86900 M⁻¹ s⁻¹ and the Kd [5] was 1.95 nM. It also gave a koff [5] of 0.000434 s⁻¹, a kon [5] of 223000 M⁻¹ s⁻¹ and a Kd [6] of 1.84 nM. The koff [6] was 0.000168 s⁻¹, the kon [6] was 91400 M⁻¹ s⁻¹ and the Kd [7] was 1.63 nM. The koff [7] was 0.000341 s⁻¹ and the kon [7] was 210000 M⁻¹ s⁻¹.
